In US20240352434, “COMPOSITIONS COMPRISING A VARIANT CAS12I3 POLYPEPTIDE AND USES THEREOF” (Arbor Biotechnologies, Inc., published 2024) one finds binding signal data, which are given here for three molecules.

T1: Cas12i3 K583R (Unidentified, K583R)
T1 chain: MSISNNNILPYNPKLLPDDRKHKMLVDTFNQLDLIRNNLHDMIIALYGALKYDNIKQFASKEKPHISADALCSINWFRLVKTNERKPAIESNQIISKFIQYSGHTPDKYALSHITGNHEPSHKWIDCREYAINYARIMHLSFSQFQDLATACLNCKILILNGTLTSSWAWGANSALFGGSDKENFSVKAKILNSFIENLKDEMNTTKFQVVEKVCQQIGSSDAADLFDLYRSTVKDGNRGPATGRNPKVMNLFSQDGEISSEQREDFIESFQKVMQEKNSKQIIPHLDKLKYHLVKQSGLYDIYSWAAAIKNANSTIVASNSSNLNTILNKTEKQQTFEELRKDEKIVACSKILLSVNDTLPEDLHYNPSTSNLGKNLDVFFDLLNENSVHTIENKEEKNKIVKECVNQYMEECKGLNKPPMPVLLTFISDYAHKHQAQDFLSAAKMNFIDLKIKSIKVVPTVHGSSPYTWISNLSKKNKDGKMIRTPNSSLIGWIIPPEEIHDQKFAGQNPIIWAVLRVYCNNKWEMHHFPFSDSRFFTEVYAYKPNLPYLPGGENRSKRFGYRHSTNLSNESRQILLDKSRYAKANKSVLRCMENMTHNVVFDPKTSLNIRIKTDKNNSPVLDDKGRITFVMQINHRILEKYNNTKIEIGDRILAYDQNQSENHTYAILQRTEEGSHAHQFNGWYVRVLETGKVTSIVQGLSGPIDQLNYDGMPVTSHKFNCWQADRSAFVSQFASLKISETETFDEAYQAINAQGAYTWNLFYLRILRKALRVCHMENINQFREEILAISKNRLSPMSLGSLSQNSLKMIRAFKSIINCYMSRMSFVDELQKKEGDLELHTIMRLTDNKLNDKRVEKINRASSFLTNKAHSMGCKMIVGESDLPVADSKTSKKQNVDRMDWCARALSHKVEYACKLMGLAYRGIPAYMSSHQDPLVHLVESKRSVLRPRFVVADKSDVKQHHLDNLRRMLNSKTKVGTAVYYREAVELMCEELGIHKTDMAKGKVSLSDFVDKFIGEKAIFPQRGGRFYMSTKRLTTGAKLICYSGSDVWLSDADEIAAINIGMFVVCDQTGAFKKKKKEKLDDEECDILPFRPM

T2: Cas12i3 N711R (Unidentified, N711R)
T2 chain: T1 chain with R583K, N711R

B1: EMX1_T5 crRNA ; EMX1_T5 target (ssRNA ; dsDNA)
RNA: AUAGUGUGUCCUUAGUUGACAUUAUUAUUCCCAUAGGGAAGG
DNA 1: TATTATTCCCATAGGGAAGG
DNA 2: CCTTCCCTATGGGAATAATA
B2: AAVS1_T3 crRNA ; AAVS1_T3 target (ssRNA ; dsDNA)
RNA: AUAGUGUGUCCUUAGUUGACAUGUGAGAAUGGUGCGUCCUAG
DNA 1: GTGAGAATGGTGCGTCCTAG
DNA 2: CTAGGACGCACCATTCTCAC
B3: VEGFA_T2 crRNA ; VEGFA_T2 target (ssRNA ; dsDNA)
RNA: AUAGUGUGUCCUUAGUUGACAUAAUCCUCCACCAGUCAUGGU
DNA 1: AATCCTCCACCAGTCATGGT
DNA 2: ACCATGACTGGTGGAGGATT

Where a chain is given by its changes, count along the chain named.

The first data set concerns the target T1, Cas12i3 K583R. As to the kind of experiment: cell_activity; fold change in % indels, HEK293T; PAM not stated in example. In a few lines: (§1)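 HEK293T cells lipofected with Lipofectamine 2000 (crRNA omitted in negative controls). Harvested 72 h post-transfection and lysed in QuickExtract. Target loci amplified by two-round PCR and sequenced on NextSeq (150 cycles) to quantify % indels.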
Take B1: the binding signal is 1.3 fold of wild-type.
Turning to B2, the binding signal was 1.81 fold of wild-type.
With B3, the binding signal is 1.74 fold of wild-type.

For a further data set, the target named is T2, Cas12i3 N711R. The description is as above. In short, it runs like this:
as §1
Consider B1, for which the binding signal was 1.56 fold of wild-type.
Same read-out and setting: then B2, with 2.79 fold of wild-type; and B3, with 2.17 fold of wild-type.
